Measured values from the supplement of paper PMC9233669.
Variants at the floor of the assay were thinned out.

Key:
biotinyl-Phe-oxazolone = assay: self-aminoacylation, catalytic enhancement (BFO) (fold over background); higher = more active; k-Seq, kA / k0A0; sequences stand for … in GGGAAUGGAUCCACAUCUACGAAUUC…UUCACUGCAGACUUGACGAAGCUG
Outline: (§1)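 Each biotinyl-aminoacyl-oxazolone, at 2–1250 μM, was incubated with mutagenized RNA pools (0.43 μM) carrying a 21-nt variable region. The 50 μL reactions contained HEPES/NaCl/KCl/MgCl2/CaCl2 buffer with 5% acetonitrile at pH 6.9–7.0 and ran for 90 minutes at room temperature. After streptavidin capture, RNA was measured by qPCR in triplicate and by Illumina sequencing, and catalytic enhancement was calculated as median kA over the uncatalyzed rate from a pseudo-first-order fit of per-sequence fraction reacted.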

biotinyl-Ile-oxazolone = assay: self-aminoacylation, catalytic enhancement (BIO) (fold over background); higher = more active; k-Seq, kA / k0A0; sequences stand for … in GGGAAUGGAUCCACAUCUACGAAUUC…UUCACUGCAGACUUGACGAAGCUG
Outline: as §1

biotinyl-Met-oxazolone = assay: self-aminoacylation, catalytic enhancement (BMO) (fold over background); higher = more active; k-Seq, kA / k0A0; sequences stand for … in GGGAAUGGAUCCACAUCUACGAAUUC…UUCACUGCAGACUUGACGAAGCUG
Outline: as §1

biotinyl-Val-oxazolone = assay: self-aminoacylation, catalytic enhancement (BVO) (fold over background); higher = more active; k-Seq, kA / k0A0; sequences stand for … in GGGAAUGGAUCCACAUCUACGAAUUC…UUCACUGCAGACUUGACGAAGCUG
Outline: as §1

biotinyl-Leu-oxazolone = assay: self-aminoacylation, catalytic enhancement (BLO) (fold over background); higher = more active; k-Seq, kA / k0A0; sequences stand for … in GGGAAUGGAUCCACAUCUACGAAUUC…UUCACUGCAGACUUGACGAAGCUG
Outline: as §1

biotinyl-Trp-oxazolone = assay: self-aminoacylation, catalytic enhancement (BWO) (fold over background); higher = more active; k-Seq, kA / k0A0; sequences stand for … in GGGAAUGGAUCCACAUCUACGAAUUC…UUCACUGCAGACUUGACGAAGCUG
Outline: as §1

Row | Sequence | self-aminoacylation (biotinyl-Phe-oxazolone) | self-aminoacylation (biotinyl-Ile-oxazolone) | self-aminoacylation (biotinyl-Met-oxazolone) | self-aminoacylation (biotinyl-Val-oxazolone) | self-aminoacylation (biotinyl-Leu-oxazolone) | self-aminoacylation (biotinyl-Trp-oxazolone)
1 | AUUAACCUACGUCAUCGGGUG [Fam2.2 aminoacylation ribozyme variant] | 47.5 | 3.99 | 6.52 | 3.84 | 8.3 | 5.8
2 | AUUAACCUAGGGCAUCGGGUG [Fam2.2 aminoacylation ribozyme variant] | 14.1 | 2.45 | 2.86 | 2.15 | 3.09 | 2.76
3 | AUUAACCUAGGUCAUCCGGUG [Fam2.2 aminoacylation ribozyme variant] | 29.5 | 3.59 | 5.02 | 3.29 | 4.91 | 5.68
4 | AUUAACCUAGGUCAUCGGCUG [Fam2.2 aminoacylation ribozyme variant] | 4.37 | 1.35 | 1.49 | 1.59 | 1.35 | 1.57
5 | AUUAACCUAGGUCAUCGGGAG [Fam2.2 aminoacylation ribozyme variant] | 1.18 | 1.14 | 0.94 | 1.14 | 1.34 | 0.979
6 | AUUAACCUAGGUCCUCGGGUG [Fam2.2 aminoacylation ribozyme variant] | 18 | 2.58 | 4.07 | 2.81 | 4.72 | 3.09
7 | AUUAACCUAGGUUAUCGGGUG [Fam2.2 aminoacylation ribozyme variant] | 17.9 | 2.5 | 3.1 | 2.19 | 3.46 | 2.84
8 | AUUAACCUGCUCAUCGAGUGA [Fam2.1 aminoacylation ribozyme variant] | 2.51 | 1.55 | 2.38 | 1.86 | 2.5 | 2.54
9 | AUUAACCUGGUCAUCGAAUGA [Fam2.1 aminoacylation ribozyme variant] | 0.933 | 1.07 | 0.959 | 1.07 | 1.09 | 0.742
10 | AUUAACCUGGUCAUCGAGGGA [Fam2.1 aminoacylation ribozyme variant] | 0.771 | 1.53 | 1.76 | 1.3 | 1.28 | 1.99
11 | AUUAACCUGGUCAUCGAGUGG [Fam2.1 aminoacylation ribozyme variant] | 2.19 | 1.25 | 1.63 | 1.2 | 2.11 | 2.03
12 | AUUAACCUGGUCAUCGAGUGU [Fam2.1 aminoacylation ribozyme variant] | 5.48 | 2.33 | 3.72 | 2.61 | 4.39 | 4.67
13 | AUUAACCUGGUCAUCGAGUUA [Fam2.1 aminoacylation ribozyme variant] | 0.827 | 1 | 1.34 | 1.02 | 1.06 | 0.836
14 | AUUAACCUGGUCAUCGUGUGA [Fam2.1 aminoacylation ribozyme variant] | 13.1 | 1.69 | 3.13 | 1.82 | 3.13 | 3.69
15 | AUUAAGCUGGUCAUCGAGUGA [Fam2.1 aminoacylation ribozyme variant] | 4.33 | 2.77 | 3.07 | 2.36 | 3.05 | 3.85
16 | AUUACAAUGGUCAUCGAGUGA [Fam2.1 aminoacylation ribozyme variant] | 16.6 | 3.7 | 6.47 | 3.54 | 6.42 | 7.87
17 | AUUACACCGGUCAUCGAGUGA [Fam2.1 aminoacylation ribozyme variant] | 29.4 | 2.95 | 5.76 | 2.96 | 6.36 | 5.95
18 | AUUACACUGGACAUCGAGUGA [Fam2.1 aminoacylation ribozyme variant] | 14.9 | 3.23 | 5.83 | 2.87 | 6.11 | 6.45
19 | AUUACACUGGUCAGCGAGUGA [Fam2.1 aminoacylation ribozyme variant] | 16.9 | 3.4 | 4.36 | 2.58 | 5.37 | 5.83
20 | AUUACACUGGUCAUCGAGCGA [Fam2.1 aminoacylation ribozyme variant] | 0.889 | 1.64 | 2.15 | 1.96 | 2.29 | 1.8
21 | AUUACACUGGUCAUCGAGUCA [Fam2.1 aminoacylation ribozyme variant] | 0.583 | 0.877 | 0.865 | 0.83 | 0.857 | 0.497
22 | AUUACACUGGUCAUUGAGUGA [Fam2.1 aminoacylation ribozyme variant] | 35 | 3.39 | 6.48 | 3.28 | 6.76 | 7.64

Row | Sequence | self-aminoacylation (biotinyl-Phe-oxazolone) | self-aminoacylation (biotinyl-Ile-oxazolone) | self-aminoacylation (biotinyl-Met-oxazolone) | self-aminoacylation (biotinyl-Val-oxazolone) | self-aminoacylation (biotinyl-Leu-oxazolone) | self-aminoacylation (biotinyl-Trp-oxazolone)
23 | AUUACAGUGGUCAUCGAGUGA [Fam2.1 aminoacylation ribozyme variant] | 1.09 | 1.75 | 1.87 | 1.76 | 1.44 | 1.78
24 | AUUACCAGGGUCAUCGAGUGA [Fam2.1 aminoacylation ribozyme variant] | 17.2 | 3.1 | 4.43 | 3.1 | 5.09 | 5.56
25 | AUUACCAUAGUCAUCGAGUGA [Fam2.1 aminoacylation ribozyme variant] | 43.4 | 4.32 | 7.07 | 3.89 | 7.53 | 9.11
26 | AUUACCAUGGUCAGCGAGUGA [Fam2.1 aminoacylation ribozyme variant] | 30.7 | 3.11 | 5.49 | 3.19 | 6.19 | 6.31
27 | AUUACCAUGGUCAUCGAGAGA [Fam2.1 aminoacylation ribozyme variant] | 0.497 | 0.797 | 0.859 | 0.864 | 0.937 | 1.38
28 | AUUACCAUGGUCAUCGAGUAA [Fam2.1 aminoacylation ribozyme variant] | 1.09 | 1.41 | 1.7 | 1.42 | 1.33 | 1.28
29 | AUUACCAUGGUCAUCGAGUGC [Fam2.1 aminoacylation ribozyme variant] | 0.948 | 1.12 | 1.38 | 1.17 | 1.47 | 1.35
30 | AUUACCAUGGUCAUCGAGUGG [Fam2.1 aminoacylation ribozyme variant] | 2.67 | 1.72 | 2.45 | 1.63 | 3.14 | 2.18
31 | AUUACCAUGGUCAUCGCGUGA [Fam2.1 aminoacylation ribozyme variant] | 189 | 10.3 | 24.6 | 12.1 | 25.2 | 26.7
32 | AUUACCAUGGUCCUCGAGUGA [Fam2.1 aminoacylation ribozyme variant] | 29.3 | 2.48 | 4.88 | 2.68 | 5.83 | 4.82
33 | AUUACCCAGGUCAUCAAGUGA [Fam2.1 aminoacylation ribozyme variant] | 3.35 | 1.47 | 1.97 | 1.59 | 1.97 | 2.63
34 | AUUACCCAGGUCAUCGACUGA [Fam2.1 aminoacylation ribozyme variant] | 0.774 | 0.847 | 0.743 | 1.03 | 0.746 | 0.9
35 | AUUACCCAGGUCAUCGAGUUA [Fam2.1 aminoacylation ribozyme variant] | 1.39 | 1.01 | 0.882 | 1 | 0.915 | 1.32
36 | AUUACCCAGGUCAUGGAGUGA [Fam2.1 aminoacylation ribozyme variant] | 8.43 | 2.85 | 3.83 | 3.01 | 4.67 | 4.7
37 | AUUACCCAGGUUAUCGAGUGA [Fam2.1 aminoacylation ribozyme variant] | 50.4 | 3.94 | 9.6 | 4.25 | 9.68 | 11.6
38 | AUUACCCCAGUCAUCGAGUGA [Fam2.1 aminoacylation ribozyme variant] | 24.9 | 2.92 | 6.05 | 3.25 | 4.88 | 6.76
39 | AUUACCCCGGUCAACGAGUGA [Fam2.1 aminoacylation ribozyme variant] | 28.2 | 3.08 | 5.86 | 3.47 | 4.74 | 6.44
40 | AUUACCCCGGUCAUCGGGUGA [Fam2.1 aminoacylation ribozyme variant] | 103 | 5.57 | 14.4 | 7.32 | 15.9 | 12.7
41 | AUUACCCCGGUCAUUGAGUGA [Fam2.1 aminoacylation ribozyme variant] | 43.9 | 3.22 | 7.29 | 3.79 | 6.53 | 8.47
42 | AUUACCCGAGUCAUCGAGUGA [Fam2.1 aminoacylation ribozyme variant] | 62.6 | 4.27 | 8.55 | 4.68 | 8.84 | 10.2
43 | AUUACCCGGAUCAUCGAGUGA [Fam2.1 aminoacylation ribozyme variant] | 38.4 | 3.43 | 7.04 | 4.04 | 7.92 | 7.26
